In PMC4288179, “Synergic interplay of the La motif, RRM1 and the interdomain linker of LARP6 in the recognition of collagen mRNA expands the RNA binding repertoire of the La module”:

Molecular target: T1, HsLARP6 La module (70-300) (Homo sapiens, UniProt Q9BRS8 70-300)
T1 sequence: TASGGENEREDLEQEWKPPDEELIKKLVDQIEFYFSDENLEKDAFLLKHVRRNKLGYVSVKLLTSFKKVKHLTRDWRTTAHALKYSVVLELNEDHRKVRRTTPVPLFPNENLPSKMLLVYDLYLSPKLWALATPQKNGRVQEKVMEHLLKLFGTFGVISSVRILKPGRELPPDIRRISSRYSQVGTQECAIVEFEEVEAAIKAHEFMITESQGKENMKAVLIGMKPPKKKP
Experiment: ITC; ITC: 20 mM Tris pH 7.25, 100 mM KCl, 5 mM MgCl2, 1 mM DTT, 298 K; protein titrated into RNA
Conditions: protein: recombinant, tags: N-terminal His6, TEV-cleaved for initial ITC

Binder: UUUU (ssRNA) [UUUUOH RNA]
- Kd (single strand): 6 µM

Binder: CAAAGAGUCUACAUGGGUCAUGUUCAGCUUUG (structured_RNA) [32 nt RNA]
- Kd (stem-loop with internal bulge): 0.125 µM
